Article PMC11406491, “A Plasmonic Nanoledge Array Sensor for Selective Detection of Cardiovascular Disease Biomarkers in Human Whole Blood”

Legend:
[1] = biological target: cardiac troponin I (cTnI) (human, UniProt P19429 2-210); assay: SPR (transmitted, EOT peak shift); PBS; LOD 0.079 ng/mL; Aptamer immobilized on gold nanoledge chip (cystamine/glutaraldehyde, PEG and glycine blocked); PBS, human serum or whole blood; 20 min incubation; room temperature (stated for stability test); pH and salt not given; conditions: protein: commercial
Chain of cardiac troponin I (cTnI) (P19429 2-210): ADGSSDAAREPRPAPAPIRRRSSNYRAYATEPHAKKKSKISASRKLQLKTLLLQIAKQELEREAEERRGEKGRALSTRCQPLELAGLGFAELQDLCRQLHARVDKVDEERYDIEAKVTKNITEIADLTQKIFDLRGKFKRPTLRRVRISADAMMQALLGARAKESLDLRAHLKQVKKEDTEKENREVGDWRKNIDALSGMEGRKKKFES

myoglobin = biological target: T1, myoglobin (UniProt P02144 2-154); assay: SPR (transmitted, EOT peak shift); up to 125 ng/mL; minimal shift, described as poor binding; human serum (Methods) or PBS (Fig S8); Aptamer immobilized on gold nanoledge chip (cystamine/glutaraldehyde, PEG and glycine blocked); PBS, human serum or whole blood; 20 min incubation; room temperature (stated for stability test); pH and salt not given; conditions: protein: commercial
T1 sequence: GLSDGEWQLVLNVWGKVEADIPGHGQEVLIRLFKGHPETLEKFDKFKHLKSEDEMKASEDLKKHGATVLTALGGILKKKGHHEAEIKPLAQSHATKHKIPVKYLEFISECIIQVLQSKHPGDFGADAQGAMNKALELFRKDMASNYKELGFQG

B1: cTnI-specific aptamer (ssDNA)
DNA: CGTGCAGTACGCCAACCTTTCTCATGCGCTGCCCCTCTTA
modifications: 5' amino modifier C6 (5AmMC6)
B1: binds [1]; no binding (myoglobin).
